Results published in patent US20190169289A1 (Scripps Research, published 2019).
Where two headings read alike, the source gives them in different places.

What was measured:
CD22 [1] = target: T1, CD22 (UniProt P20273 20-847, limits assumed); experiment: cell-based or functional assay
CD22 [2] = target: T1, CD22; experiment: cell-based or functional assay; remark: listed apart in the source
CD22 [3] = target: T1, CD22; experiment: cell-based or functional assay; remark: listed apart in the source
CD22 [4] = target: T1, CD22; experiment: cell-based or functional assay; remark: listed apart in the source
[5] = target: T2, anti-GCN4 (52SR4 scFv) sCAR with IgG4m hinge; experiment: flow cytometry competition on CAR-T cells with the GCN4 CAR (SEQ ID NO. 74): 1 nM labelled GCN4 peptide (GCN4-AF488) as competitor, unlabelled peptide titrated, MFI of the labelled peptide read
T2 construct: disulfide dimer by western blot; also called short-dimeric sCAR; IgG4m sCAR
T2 chain: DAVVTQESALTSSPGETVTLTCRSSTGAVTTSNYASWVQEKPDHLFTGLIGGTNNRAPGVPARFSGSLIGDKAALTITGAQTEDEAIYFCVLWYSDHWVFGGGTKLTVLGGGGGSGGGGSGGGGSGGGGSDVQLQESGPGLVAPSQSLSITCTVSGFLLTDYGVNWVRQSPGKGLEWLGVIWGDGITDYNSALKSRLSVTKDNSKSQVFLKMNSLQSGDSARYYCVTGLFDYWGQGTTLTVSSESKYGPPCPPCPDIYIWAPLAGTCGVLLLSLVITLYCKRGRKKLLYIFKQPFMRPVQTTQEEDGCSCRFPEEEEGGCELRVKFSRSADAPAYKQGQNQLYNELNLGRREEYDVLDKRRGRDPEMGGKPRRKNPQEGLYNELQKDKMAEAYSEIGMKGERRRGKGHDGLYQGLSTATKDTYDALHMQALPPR
Description: Un-labelled peptide binding efficiency was indirectly shown by measuring the mean fluorescence intensity (MFI) staining with the labelled peptide.
Cells were then washed twice with cold PBS to remove the free labelled peptide before being analyzed using the BD Accuri flow cytometer.

B1: anti-CD22 (clone hLL2) Fab HCCT switch (Fab, V domains shown)
VH: QVQLVQSGAEVKKPGSSVKVSCKASGYTFTSYWLHWVRQAPGQGLEWIGYINPRNDYTEYNQNFKDKATITADESTNTAYMELSSLRSEDTAFYFCARRDITTFYWGQGTTVTVSS
VL: DIQLTQSPSSLSASVGDRVTMSCKSSQSVLYSANHKNYLAWYQQKPGKAPKLLIYWASTRESGVPSRFSGSGSGTDFTFTISSLQPEDIATYYCHQYLSSWTFGGGTKLEIKR
CD22 [1]
  EC50 of cytotoxicity: 1340 pM
CD22 [2]
  cytotoxicity at 0.01 pM: 1.3
  cytotoxicity at 0.1 pM: 6.05
  cytotoxicity at 1 pM: 7.67
  cytotoxicity at 10 pM: 8.27
  cytotoxicity at 100 pM: 7.35
  cytotoxicity at 1000 pM: 25
  cytotoxicity at 10000 pM: 45.1

B2: anti-CD22 (clone hLL2) Fab LCNT switch (Fab, V domains shown)
VH: QVQLVQSGAEVKKPGSSVKVSCKASGYTFTSYWLHWVRQAPGQGLEWIGYINPRNDYTEYNQNFKDKATITADESTNTAYMELSSLRSEDTAFYFCARRDITTFYWGQGTTVTVSS
VL: DIQLTQSPSSLSASVGDRVTMSCKSSQSVLYSANHKNYLAWYQQKPGKAPKLLIYWASTRESGVPSRFSGSGSGTDFTFTISSLQPEDIATYYCHQYLSSWTFGGGTKLEIKR
CD22 [1]
  EC50 of cytotoxicity: 6560 pM

B3: anti-CD22 (clone hLL2) Fab NTBV switch (Fab, V domains shown)
VH: QVQLVQSGAEVKKPGSSVKVSCKASGYTFTSYWLHWVRQAPGQGLEWIGYINPRNDYTEYNQNFKDKATITADESTNTAYMELSSLRSEDTAFYFCARRDITTFYWGQGTTVTVSS
VL: DIQLTQSPSSLSASVGDRVTMSCKSSQSVLYSANHKNYLAWYQQKPGKAPKLLIYWASTRESGVPSRFSGSGSGTDFTFTISSLQPEDIATYYCHQYLSSWTFGGGTKLEIKR
CD22 [1]
  EC50 of cytotoxicity: 135 pM
CD22 [2]
  cytotoxicity at 0.01 pM: 1.52
  cytotoxicity at 0.1 pM: 2.19
  cytotoxicity at 1 pM: 4.2
  cytotoxicity at 10 pM: 2.07
  cytotoxicity at 1000 pM: -2.07
  cytotoxicity at 10000 pM: 1.5

B4: anti-CD22 (clone hLL2) IgG LCCT switch (antibody)
light: DIQLTQSPSSLSASVGDRVTMSCKSSQSVLYSANHKNYLAWYQQKPGKAPKLLIYWASTRESGVPSRFSGSGSGTDFTFTISSLQPEDIATYYCHQYLSSWTFGGGTKLEIKRTVAAPSVFIFPPSDEQLKSGTASVVCLLNNFYPREAKVQWKVDNALQSGNSQESVTEQDSKDSTYSLSSTLTLSKADYEKHKVYACEVTHQGLSSPVTKSFNRGECGGGGSNYHLENEVARLKKL
heavy: QVQLVQSGAEVKKPGSSVKVSCKASGYTFTSYWLHWVRQAPGQGLEWIGYINPRNDYTEYNQNFKDKATITADESTNTAYMELSSLRSEDTAFYFCARRDITTFYWGQGTTVTVSSARTKGPSVFPLAPSSKSTSGGTAALGCLVKDYFPEPVTVSWNSGALTSGVHTFPAVLQSSGLYSLSSVVTVPSSSLGTQTYICNVNHKPSNTKVDKKVEPKSCDKTHTCPPCPAPPVAGPSVFLFPPKPKDTLMISRTPEVTCVVVDVSHEDPEVKFNWYVDGVEVHNAKTKPREEQYNSTYRVVSVLTVLHQDWLNGKEYKCKVSNKGLPSSIEKTISKAKGQPREPQVYTLPPSRDELTKNQVSLTCLVKGFYPSDIAVEWESNGQPENNYKTTPPVLDSDGSFFLYSKLTVDKSRWQQGNVFSCSVMHEALHNHYTQKSLSLSPGK
CD22 [3]
  EC50 of cytotoxicity: 26.9 pM
CD22 [4]
  cytotoxicity at 0.06 pM: -2.8
  cytotoxicity at 0.30 pM: -7.88
  cytotoxicity at 1.52 pM: -6.59
  cytotoxicity at 7.62 pM: 0.95
  cytotoxicity at 38.10 pM: 14.1
  cytotoxicity at 190.48 pM: 24.4
  cytotoxicity at 952.40 pM: 25.4
  cytotoxicity at 4762.00 pM: 28.5

B5: anti-CD22 (clone hLL2) Fab LCCT switch (Fab)
light: DIQLTQSPSSLSASVGDRVTMSCKSSQSVLYSANHKNYLAWYQQKPGKAPKLLIYWASTRESGVPSRFSGSGSGTDFTFTISSLQPEDIATYYCHQYLSSWTFGGGTKLEIKRTVAAPSVFIFPPSDEQLKSGTASVVCLLNNFYPREAKVQWKVDNALQSGNSQESVTEQDSKDSTYSLSSTLTLSKADYEKHKVYACEVTHQGLSSPVTKSFNRGECGGGGSNYHLENEVARLKKL
heavy: QVQLVQSGAEVKKPGSSVKVSCKASGYTFTSYWLHWVRQAPGQGLEWIGYINPRNDYTEYNQNFKDKATITADESTNTAYMELSSLRSEDTAFYFCARRDITTFYWGQGTTVTVSSARTKGPSVFPLAPSSKSTSGGTAALGCLVKDYFPEPVTVSWNSGALTSGVHTFPAVLQSSGLYSLSSVVTVPSSSLGTQTYICNVNHKPSNTKVDKKVEPKSC
CD22 [1]
  EC50 of cytotoxicity: 132 pM
CD22 [2]
  cytotoxicity at 0.01 pM: -2.13
  cytotoxicity at 0.1 pM: -0.84
  cytotoxicity at 1 pM: -0.01
  cytotoxicity at 10 pM: 4.8
  cytotoxicity at 100 pM: 23.8
  cytotoxicity at 1000 pM: 49.6
  cytotoxicity at 10000 pM: 56.5

## AAALENEVARLKKL [Peptide 4: AAALENEVARLKKL]
[5]
  binding result: no binding (tested: 10^3 nM)

## NYHLENEVARLKKA [Peptide 6: NYHLENEVARLKKA]
[5]
  binding result: binds

## AAAAENEVARLKKL [Peptide 5: AAAAENEVARLKKL]
[5]
  binding result: no binding (tested: 10^3 nM)

## NYHLENEVARLKAA [Peptide 7: NYHLENEVARLKAA]
[5]
  binding result: binds

## NYHLENEVARLAAA [Peptide 8: NYHLENEVARLAAA]
[5]
  binding result: binds

B6: anti-CD22 (clone hLL2) IgG HCCT switch (antibody)
light: DIQLTQSPSSLSASVGDRVTMSCKSSQSVLYSANHKNYLAWYQQKPGKAPKLLIYWASTRESGVPSRFSGSGSGTDFTFTISSLQPEDIATYYCHQYLSSWTFGGGTKLEIKRTVAAPSVFIFPPSDEQLKSGTASVVCLLNNFYPREAKVQWKVDNALQSGNSQESVTEQDSKDSTYSLSSTLTLSKADYEKHKVYACEVTHQGLSSPVTKSFNRGEC
heavy: QVQLVQSGAEVKKPGSSVKVSCKASGYTFTSYWLHWVRQAPGQGLEWIGYINPRNDYTEYNQNFKDKATITADESTNTAYMELSSLRSEDTAFYFCARRDITTFYWGQGTTVTVSSARTKGPSVFPLAPSSKSTSGGTAALGCLVKDYFPEPVTVSWNSGALTSGVHTFPAVLQSSGLYSLSSVVTVPSSSLGTQTYICNVNHKPSNTKVDKKVEPKSCDKTHTCPPCPAPPVAGPSVFLFPPKPKDTLMISRTPEVTCVVVDVSHEDPEVKFNWYVDGVEVHNAKTKPREEQYNSTYRVVSVLTVLHQDWLNGKEYKCKVSNKGLPSSIEKTISKAKGQPREPQVYTLPPSRDELTKNQVSLTCLVKGFYPSDIAVEWESNGQPENNYKTTPPVLDSDGSFFLYSKLTVDKSRWQQGNVFSCSVMHEALHNHYTQKSLSLSPGKGGGGSNYHLENEVARLKKL
CD22 [3]
  EC50 of cytotoxicity: 15.3 pM
CD22 [4]
  cytotoxicity at 0.06 pM: 0.25
  cytotoxicity at 0.30 pM: -1.05
  cytotoxicity at 1.52 pM: -4.45
  cytotoxicity at 7.62 pM: 8.18
  cytotoxicity at 38.10 pM: 20.9
  cytotoxicity at 190.48 pM: 31.8
  cytotoxicity at 4762.00 pM: 24.1
